Laboratory results reported in paper PMC5629210.

Target: SRGAP1 (UniProt Q7Z6B7)
Experiment: GFP-trap of SRGAP1-GFP, blot for cortactin-mCherry
Conditions: reference: wild type cortactin-mCherry; sites Y421,Y470,Y486

binding against the reference: stronger
Substance: cortactin (from UniProt Q14247) 3YF cortactin-mCherry
